This is an account of results in patent US20190062438A1 (CSL, published 2019).

The chains are these.
B1: 9A2-VR39.93 (antibody, V domains shown)
VH: EVQLLESGGGLVQPGGSLRLSCAASGFTFSHYHMLWVRQAPGKGLEWVSSINGRGRVTYYNPAWKKRFTISRDNSKNTLYLQMNSLRAEDTAVYYCARFYDSFFDIWGQGTMVTVSS
VL: DIQMTQSPSSVSASVGDRVTITCRASQGISSWLAWYQQKPGKAPKLLIYAASSLQSGVPSRFSGSGSGTDFTLTISSLQPEDFATYYCQQANSFPITFGQGTRLEIKR
B2: 9A2-VR24.76 (antibody, V domains shown)
VH: EVQLLESGGGLVQPGGSLRLSCAASGFTFPWYRVHWVRQAPGKGLEWVSSIQTHGVWTYYADSVKGRFTISRDNSKNTLYLQMNSLRAEDTAVYYCARFYDSFFDIWGQGTMVTVSS
VL: B1 VL
B3: 9A2-VR24.24 (antibody, V domains shown)
VH: B2 VH with Q52R, H54D, V56T
VL: B1 VL
B4: 9A2-VR24.12 (antibody, V domains shown)
VH: B2 VH with Q52H, G55Y, V56Q, W57Y
VL: B1 VL
B5: 9A2-VR24.82 (antibody, V domains shown)
VH: B2 VH with Q52K, T53H, H54G, V56R, W57Y
VL: B1 VL
B6: 9A2-VR24.04 (antibody, V domains shown)
VH: B2 VH with Q52H, G55R, V56H, W57I
VL: B1 VL
B7: 9A2-VR24.81 (antibody, V domains shown)
VH: B2 VH with Q52H, G55R, V56N, W57Y
VL: B1 VL
B8: 9A2-VR24.19 (antibody, V domains shown)
VH: B2 VH with Q52H, H54Q, G55S, V56K
VL: B1 VL
B9: 9A2-VR39.177 (antibody, V domains shown)
VH: B1 VH with N61A, P62L, A63E, W64Y
VL: B1 VL
B10: 9A2-VR24.10 (antibody, V domains shown)
VH: B2 VH with Q52H, H54G, G55S, V56Q
VL: B1 VL
B11: 9A2-VR24.84 (antibody, V domains shown)
VH: B2 VH with Q52H, G55R, V56P
VL: B1 VL
B12: 9A2-VR24.91 (antibody, V domains shown)
VH: B2 VH with Q52H, G55R, V56Q, W57V
VL: B1 VL
B13: 9A2-VR24.07 (antibody, V domains shown)
VH: B2 VH with Q52H, G55R, V56N, W57S
VL: B1 VL
B14: 9A2-VR39.174 (antibody, V domains shown)
VH: B1 VH with N61A, P62R, A63D, W64H
VL: B1 VL
B15: 9A2-VR24.78 (antibody, V domains shown)
VH: B2 VH with Q52H, G55R, V56N, W57Y
VL: B1 VL
B16: 9A2-VR24.87 (antibody, V domains shown)
VH: B2 VH with Q52H, G55S, V56D
VL: B1 VL

Residue numbers refer to the chain shown, from its start.

The target of the assay is T1, human CD131 (human, UniProt P32927 17-897).
T1 sequence: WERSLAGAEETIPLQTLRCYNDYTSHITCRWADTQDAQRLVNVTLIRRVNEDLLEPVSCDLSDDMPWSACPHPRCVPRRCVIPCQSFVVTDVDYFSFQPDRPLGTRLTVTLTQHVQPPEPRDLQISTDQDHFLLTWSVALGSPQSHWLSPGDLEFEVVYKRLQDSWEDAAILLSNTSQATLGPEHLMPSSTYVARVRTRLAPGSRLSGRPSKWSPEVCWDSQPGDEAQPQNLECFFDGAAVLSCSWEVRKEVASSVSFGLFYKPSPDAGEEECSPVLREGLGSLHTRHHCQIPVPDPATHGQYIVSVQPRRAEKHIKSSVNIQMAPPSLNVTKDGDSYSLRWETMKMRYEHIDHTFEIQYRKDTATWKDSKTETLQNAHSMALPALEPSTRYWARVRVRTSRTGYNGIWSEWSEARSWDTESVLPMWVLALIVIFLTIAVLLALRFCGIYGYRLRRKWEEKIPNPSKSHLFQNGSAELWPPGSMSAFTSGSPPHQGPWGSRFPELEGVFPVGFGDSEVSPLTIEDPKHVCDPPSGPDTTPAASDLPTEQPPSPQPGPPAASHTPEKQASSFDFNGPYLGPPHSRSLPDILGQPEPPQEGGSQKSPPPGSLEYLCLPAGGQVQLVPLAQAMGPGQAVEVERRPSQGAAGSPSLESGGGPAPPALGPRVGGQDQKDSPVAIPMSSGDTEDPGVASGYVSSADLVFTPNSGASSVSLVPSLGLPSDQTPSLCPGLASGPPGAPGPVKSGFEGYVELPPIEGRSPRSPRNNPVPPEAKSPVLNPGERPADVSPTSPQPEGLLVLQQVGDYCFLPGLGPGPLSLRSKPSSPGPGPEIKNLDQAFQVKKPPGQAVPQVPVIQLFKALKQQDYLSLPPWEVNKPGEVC
As to the kind of experiment: cell-based or functional assay.
As for B1, the “IC50 GM-CSF, TF-1 proliferation” value turned out to be 0.28 nM. For B2 the value was 12.4 nM; for B3, 1.09 nM. To B4 belongs 0.93 nM; to B5, 3.99 nM.

Regarding B6, the “IC50 GM-CSF, TF-1 proliferation” value turned out to be 0.7 nM.

In the case of B7, the “IC50 GM-CSF, TF-1 proliferation” value was 0.48 nM. To B8 belongs 0.98 nM; to B9, 0.52 nM. For B10 the value was 9.52 nM; for B11, 0.21 nM. To B12 belongs 0.5 nM; to B13, 1.17 nM; to B14, 0.64 nM. With B15, the “IC50 GM-CSF, TF-1 proliferation” value worked out at 0.65 nM.

B16: the “IC50 GM-CSF, TF-1 proliferation” value is 2.37 nM.
